Data: paper PMC6120343 (Nature, 2018)
Substitutions are numbered along the chain they refer to. Names and notes keep the numbering of the source.

Assays:
SEC = molecular target: the molecule itself; experiment: SEC
[1] = molecular target: the molecule itself; experiment: cryo-EM 2D class averages
[2] = molecular target: DRP1 E116R mutant, full length (human, UniProt O00429-3 1-710, E116R); experiment: assembly and coassembly seen by negative stain electron microscopy
[3] = molecular target: the molecule itself; experiment: as above

B1: DRP1 G362D, disease-associated mutant, full length (enzyme)
chain: MEALIPVINKLQDVFNTVGADIIQLPQIVVVGTQSSGKSSVLESLVGRDLLPRGTGIVTRRPLILQLVHVSQEDKRKTTGEENGVEAEEWGKFLHTKNKLYTDFDEIRQEIENETERISGNNKGVSPEPIHLKIFSPNVVNLTLVDLPGMTKVPVGDQPKDIELQIRELILRFISNPNSIILAVTAANTDMATSEALKISREVDPDGRRTLAVITKLDLMDAGTDAMDVLMGRVIPVKLGIIGVVNRSQLDINNKKSVTDSIRDEYAFLQKKYPSLANRNGTKYLARTLNRLLMHHIRDCLPELKTRINVLAAQYQSLLNSYGEPVDDKSATLLQLITKFATEYCNTIEGTAKYIETSELCDGARICYIFHETFGRTLESVDPLGGLNTIDILTAIRNATGPRPALFVPEVSFELLVKRQIKRLEEPSLRCVELVHEEMQRIIQHCSNYSTQELLRFPKLHDAIVEVVTCLLRKRLPVTNEMVHNLVAIELAYINTKHPDFADACGLMNNNIEEQRRNRLARELPSAVSRDKLIQDSRRETKNVASGGGGVGDGVQEPTTGNWRGMLKTSKAEELLAEEKSKPIPIMPASPQKGHAVNLLDVPVPVARKLSAREQRDCEVIERLIKSYFLIVRKNIQDSVPKAVMHFLVNHVKDTLQSELVGQLYKSSLLDDLLTESEDMAQRRKEAADMLKALQGASQIIAEIRETHLW
SEC
  stoichiometry N: 2
[1]
  stoichiometry N: 24 chains (12 dimers)

B2: MID49_(126-454), soluble truncation of Mitochondrial Dynamics 49 without the N-terminal transmembrane anchor (domain or fragment)
chain: TLQERLLAFERDRVTIPAAQVALAKQLAGDIALELQAYFRSKFPELPFGAFVPGGPLYDGLQAGAADHVRLLVPLVLEPGLWSLVPGVDTVARDPRCWAVRRTQLEFCPRGSSPWDRFLVGGYLSSRVLLELLRKALAASVNWPAIGSLLGCLIRPSMASEELLLEVQHERLELTVAVLVAVPGVDADDRLLLAWPLEGLAGNLWLQDLYPVEAARLRALDDHDAGTRRRLLLLLCAVCRGCSALGQLGRGHLTQVVLRLGEDNVDWTEEALGERFLQALELLIGSLEQASLPCHFNPSVNLFSSLREEEIDDIGYALYSGLQEPEGLL
[2]
  binding result: binds

B3: DRP1 S611D phosphomimetic mutant, full length (enzyme)
chain: B1 chain with D362G, S611D
[3]
  binding result: binds
